Reference: PMC5382683, “Identified of a novel cis-element regulating the alternative splicing of LcDREB2”

Target: T1, RSZp21b (Oryza sativa, UniProt Q6K4N0 1-185)
T1 sequence: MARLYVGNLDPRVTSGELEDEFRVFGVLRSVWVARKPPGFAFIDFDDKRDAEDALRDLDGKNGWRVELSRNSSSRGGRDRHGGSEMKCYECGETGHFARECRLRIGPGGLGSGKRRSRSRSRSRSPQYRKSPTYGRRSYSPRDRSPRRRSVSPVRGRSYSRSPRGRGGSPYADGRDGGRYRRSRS
Assay: EMSA; LightShift Chemiluminescent EMSA Kit (Pierce 20158) per manufacturer; 100-fold unlabeled probe as competitor; buffer, salt, pH, temperature not stated
Details: protein: recombinant; tags: His (pET30a, Ni column)

ACUCUUGGCGCAGCAAAAGGGAGAUGCGC (ssRNA) [E3-2]
binding result: binds
